To fix the notation:
B1: Eu3+K-labeled hCBP1-113 (NH2-terminal amino acids 1-113 of human CBP, cleaved from GST with thrombin, directly labeled with europium cryptate) (other)
chain: MAENLLDGPPNPKRAKLSSPGFSANDSTDFGSLFDLENDLPDELIPNGGELGLLNSGNLVPDAASKHKQLSELLRGGSGSSINPGIGNVSASSPVQQGLGGQAQGQPNSANMA
modifications: directly labeled with europium cryptate (Eu3+K); labeled residues not stated
notes: Made as a GST fusion in E. coli (pGEX) and cleaved with thrombin; The preparation gave two bands, 12 kd (expected) and 10 kd (likely a premature termination product)
B4: biotin-labeled hPPARγ1LBD (human PPARγ1 ligand binding domain, amino acids 176-478, cleaved free of GST) (receptor)
chain: SHNAIRFGRIAQAEKEKLLAEISSDIDQLNPESADLRQALAKHLYDSYIKSFPLTKAKARAILTGKTTDKSPFVIYDMNSLMMGEDKIKFKHITPLQEQSKEVAIRIFQGCQFRSVEAVQEITEYAKSIPGFVNLDLNDQVTLLKYGVHEIIYTMLASLMNKDGVLISEGQGFMTREFLKSLRKPFGDFMEPKFEFAVKFNALELDDSDLAIFIAVIILSGDRPGLLNVKPIEDIQDNLLQALELQLKLNHPESSQLFAKLLQKMTDLRQIVTEHVQLLQVIKKTETDMSLHPLLQEIYKDLY
modifications: biotinylated with Sulfo-NHS-LC-Biotin to a biotin:hPPARγ1LBD ratio of 3:1; sites not stated
notes: Made from pGEX-KG as a GST fusion and cleaved free of GST; In the assay it carried streptavidin-labeled XL665 through the biotin; also called biotin-hPPARγ1LBD

The target of one experiment is PPARγ1LBD (Homo sapiens, UniProt P37231). Nature of the experiment: Binding constant for hCBP/PPARγ1LBD interaction by FRET competition with non-biotinylated hCBP1-453 (FIG. 6). Also noted: amino acids 176-478 of PPARγ1; made in house; host or cells: E. coli (DH5α). The note with it: saturating PPARγ agonist (10 μM BRL49653); derived from FIG. 6; read-out: Kd for the interaction between hCBP1-453 and PPARγ1LBD. Here is the method:
The above-described assay can also be used to characterize the interaction between nuclear receptors with co-activators as, e.g., by determining the binding constant for that interaction. […] Saturating amounts of PPARγ agonist (10 μM BRL49653) were used. Increasing concentrations of non-biotinylated hCBP1-453 were used to titrate away biotin-hCBP-PPARγ1LBD complex and decrease the fluorescence energy transfer. A Kd of 300 nM for the interaction between hCBP1-453 and PPARγ1LBD can be derived from the results illustrated in FIG. 6 and this Kd (300 nM) is a measurement of the affinity between CBP and PPARγ.

Experiment [1] addresses B4. Nature of the experiment: FRET, same format without agonist (0.1% DMSO vehicle), PBS; background control.
Experiment [2] addresses B4. Nature of the experiment: FRET, same format without agonist (vehicle), HEPES + 0.05% NP40; background control.
The target in experiment [3] is B4. Nature of the experiment: FRET, Eu3+K-hCBP1-113 + biotin-hPPARγ1LBD + SA-XL665, 1 µM AD5075, HEPES + 0.05% NP40.
Experiment [4] deals with B4. Nature of the experiment: FRET, Eu3+K-hCBP1-113 (100 nM) + biotin-hPPARγ1LBD (100 nM) + SA-XL665 (100 nM), 1 µM AD5075, PBS.
The target in experiment [5] is B4. Nature of the experiment: FRET, experiment 3 format, HEPES + 0.05% NP40. The text has this: (§1) In order to get an even better signal-noise ratio, the above-described format was modified slightly for experiment 3.
In experiment [6] the target is B4. Nature of the experiment: FRET, GST-hCBP1-113 + Eu3+K anti-GST antibody + biotin-hPPARγ1LBD (100 nM) + SA-XL665 (500 nM), 1 µM AD5075, HEPES + 0.05% NP40.
From the text: as §1

The target in experiment [7] is non-biotinylated hCBP1-453 (NH2-terminal amino acids 1-453 of human CBP, cleaved from GST) (human, UniProt Q92793 1-453). Nature of the experiment: FRET competition: increasing non-biotinylated hCBP1-453 displaces biotin-hCBP from PPARγ1LBD, saturating agonist (10 µM BRL49653). The protocol:
The above-described assay can also be used to characterize the interaction between nuclear receptors with co-activators as, e.g., by determining the binding constant for that interaction. […] Saturating amounts of PPARγ agonist (10 μM BRL49653) were used.

Experiment [8] addresses B1. Nature of the experiment: FRET, Eu3+K-hCBP1-113 + biotin-hPPARγ1LBD + SA-XL665, PBS.

The term Kd denotes the free concentration of one partner at which half of the binding sites on the other are occupied at equilibrium, for simple one-to-one binding.

Sequence of PPARγ1LBD (P37231 204-505): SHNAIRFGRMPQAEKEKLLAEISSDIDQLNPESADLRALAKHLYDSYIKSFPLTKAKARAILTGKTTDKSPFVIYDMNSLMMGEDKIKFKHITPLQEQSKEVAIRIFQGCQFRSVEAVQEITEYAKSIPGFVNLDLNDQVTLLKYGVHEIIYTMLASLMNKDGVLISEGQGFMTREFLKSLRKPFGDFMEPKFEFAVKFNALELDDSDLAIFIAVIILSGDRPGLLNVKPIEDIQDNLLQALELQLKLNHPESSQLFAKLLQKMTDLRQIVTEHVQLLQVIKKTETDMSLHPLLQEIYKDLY
Sequence of PPARγ1LBD (Q92793 1-453 partner): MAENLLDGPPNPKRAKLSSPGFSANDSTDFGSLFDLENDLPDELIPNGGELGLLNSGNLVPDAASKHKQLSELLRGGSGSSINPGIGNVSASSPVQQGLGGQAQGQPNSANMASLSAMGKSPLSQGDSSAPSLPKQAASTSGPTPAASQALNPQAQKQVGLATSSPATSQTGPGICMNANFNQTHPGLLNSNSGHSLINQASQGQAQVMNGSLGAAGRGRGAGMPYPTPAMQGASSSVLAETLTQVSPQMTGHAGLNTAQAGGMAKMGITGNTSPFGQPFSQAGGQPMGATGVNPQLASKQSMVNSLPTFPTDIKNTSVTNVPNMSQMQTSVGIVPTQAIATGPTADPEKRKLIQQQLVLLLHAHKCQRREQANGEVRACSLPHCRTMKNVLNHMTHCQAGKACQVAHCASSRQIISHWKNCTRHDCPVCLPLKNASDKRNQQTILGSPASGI

In the case of “hCBP1-453: NH2-terminal 1-453 amino acids of human CBP, expressed in E. coli as GST fusion and cleaved”, the Kd with PPARγ1LBD worked out at 300 nM.
Regarding B1, the “Emission ratio with vehicle” value in [1] was 1070 665 nm/620 nm ratio x 10,000; in experiment [2], 617 665 nm/620 nm ratio x 10,000. The “Emission ratio with AD5075” value in [3] is 967 665 nm/620 nm ratio x 10,000; in experiment [4] it was 1130 665 nm/620 nm ratio x 10,000.

B2: GST-hCBP1-113 (glutathione S-transferase fused to amino acids 1-113 of human CBP) (other)
chain: MAENLLDGPPNPKRAKLSSPGFSANDSTDFGSLFDLENDLPDELIPNGGELGLLNSGNLVPDAASKHKQLSELLRGGSGSSINPGIGNVSASSPVQQGLGGQAQGQPNSANMA
notes: Uncleaved fusion, detected in the assay by Eu3+K-labeled goat anti-GST antibody (Pharmacia 27-4577-01); also called GST-CBP fusion protein; not shown: glutathione S-transferase (GST) of the pGEX expression vector (Pharmacia Biotech); pGEX linker with thrombin site between GST and CBP
Take B2: the “signal-noise ratio (with AD5075 against without)” value in [5] came out at 2 fold. Moreover, the “Emission ratio with vehicle” value in experiment [2] was 536 665 nm/620 nm ratio x 10,000. Also, the “Emission ratio with AD5075” value in [6] was 1080 665 nm/620 nm ratio x 10,000.

B3: GST-hPPARγ1LBD (glutathione S-transferase fused to amino acids 176-478 of human PPARγ1) (receptor)
chain: SHNAIRFGRIAQAEKEKLLAEISSDIDQLNPESADLRQALAKHLYDSYIKSFPLTKAKARAILTGKTTDKSPFVIYDMNSLMMGEDKIKFKHITPLQEQSKEVAIRIFQGCQFRSVEAVQEITEYAKSIPGFVNLDLNDQVTLLKYGVHEIIYTMLASLMNKDGVLISEGQGFMTREFLKSLRKPFGDFMEPKFEFAVKFNALELDDSDLAIFIAVIILSGDRPGLLNVKPIEDIQDNLLQALELQLKLNHPESSQLFAKLLQKMTDLRQIVTEHVQLLQVIKKTETDMSLHPLLQEIYKDLY
notes: Uncleaved fusion, detected in the assay by Eu3+K-labeled anti-GST antibody; not shown: glutathione S-transferase (GST) of the pGEX-KG vector (Guan & Dixon 1991); pGEX-KG linker between GST and the LBD
Regarding B3, the Kd in experiment [7] is 300 nM.
On to B4, for which the binding result in experiment [8] is “binds”.
